Measurements: patent US8895245

Tests used:
[1] = test system: Biotinylated histone H3:21-44 peptide containing monomethylated K27
[2] = test system: Chicken erythrocyte oligonucleosomes
[3] = test system: Biotinylated histone H3:21-44 peptide containing dimethylated K27
[4] = test system: Biotinylated histone H3:21-44 peptide containing unmethylated K27

| Substance | K (K1/2, concentration of peptide resulting in half-maximal velocity) [1] [nM] | K (Km for nucleosome) [2] [µM] | K (K1/2, concentration of peptide resulting in half-maximal velocity) [3] [nM] | K (K1/2, concentration of peptide resulting in half-maximal velocity) [4] [nM] |
| --- | --- | --- | --- | --- |
| Recombinant five-component PRC2 complex containing Y641H mutant EZH2 | 319 | 0.14 | 148 |  |
| Recombinant five-component PRC2 complex containing Y641S mutant EZH2 | 249 | 0.137 | 136 |  |
| Recombinant five-component PRC2 complex containing Y641N mutant EZH2 | 280 | 0.191 | 157 |  |
| Recombinant five-component PRC2 complex containing Y641F mutant EZH2 | 404 | 0.176 | 191 | 240 |
